{
  "source": "the Human Domainome abundance scans (Beltran et al. 2025)",
  "note": "± gives the uncertainty stated by the source.",
  "data": [
    {"test": "abundance fitness (aPCA) (normalised: wild type 0, dead -1); higher = more abundant; growth selection in yeast, the domain comes from the species named", "conditions": "Homo sapiens", "values": [
      {"substance": "SAFB-like transcription modulator R26H, Q9NWH9", "abundance fitness": "-0.322 ± 0.23"},
      {"substance": "SAFB-like transcription modulator R26K, Q9NWH9", "abundance fitness": "-0.389 ± 0.14"},
      {"substance": "SAFB-like transcription modulator R26L, Q9NWH9", "abundance fitness": "-0.131 ± 0.078"},
      {"substance": "SAFB-like transcription modulator R26M, Q9NWH9", "abundance fitness": "-0.098 ± 0.092"},
      {"substance": "SAFB-like transcription modulator R26P, Q9NWH9", "abundance fitness": "-0.126 ± 0.14"},
      {"substance": "SAFB-like transcription modulator R26Q, Q9NWH9", "abundance fitness": "-0.502 ± 0.17"},
      {"substance": "SAFB-like transcription modulator R26S, Q9NWH9", "abundance fitness": "-0.011 ± 0.071"},
      {"substance": "SAFB-like transcription modulator R26T, Q9NWH9", "abundance fitness": "-0.302 ± 0.12"},
      {"substance": "SAFB-like transcription modulator R26V, Q9NWH9", "abundance fitness": "-0.365 ± 0.085"},
      {"substance": "SAFB-like transcription modulator R26W, Q9NWH9", "abundance fitness": "-0.627 ± 0.1"},
      {"substance": "SAFB-like transcription modulator R26Y, Q9NWH9", "abundance fitness": "-0.579 ± 0.27"},
      {"substance": "SAFB-like transcription modulator R36S, Q9NWH9", "abundance fitness": "-0.048 ± 0.42"},
      {"substance": "SAFB-like transcription modulator R37A, Q9NWH9", "abundance fitness": "-1.09 ± 0.091"},
      {"substance": "SAFB-like transcription modulator R37C, Q9NWH9", "abundance fitness": "-0.921 ± 0.052"},
      {"substance": "SAFB-like transcription modulator R37D, Q9NWH9", "abundance fitness": "-0.621 ± 0.052"},
      {"substance": "SAFB-like transcription modulator R37E, Q9NWH9", "abundance fitness": "-0.694 ± 0.036"},
      {"substance": "SAFB-like transcription modulator R37G, Q9NWH9", "abundance fitness": "-0.912 ± 0.047"},
      {"substance": "SAFB-like transcription modulator R37H, Q9NWH9", "abundance fitness": "-0.648 ± 0.066"},
      {"substance": "SAFB-like transcription modulator R37I, Q9NWH9", "abundance fitness": "-1.07 ± 0.16"},
      {"substance": "SAFB-like transcription modulator R37K, Q9NWH9", "abundance fitness": "-0.283 ± 0.098"},
      {"substance": "SAFB-like transcription modulator R37L, Q9NWH9", "abundance fitness": "-0.71 ± 0.045"},
      {"substance": "SAFB-like transcription modulator R37M, Q9NWH9", "abundance fitness": "-0.601 ± 0.064"},
      {"substance": "SAFB-like transcription modulator R37N, Q9NWH9", "abundance fitness": "-1.12 ± 0.17"},
      {"substance": "SAFB-like transcription modulator R37P, Q9NWH9", "abundance fitness": "-0.658 ± 0.094"},
      {"substance": "SAFB-like transcription modulator R37Q, Q9NWH9", "abundance fitness": "-0.575 ± 0.13"},
      {"substance": "SAFB-like transcription modulator R37S, Q9NWH9", "abundance fitness": "-0.845 ± 0.057"},
      {"substance": "SAFB-like transcription modulator R37T, Q9NWH9", "abundance fitness": "-0.751 ± 0.078"},
      {"substance": "SAFB-like transcription modulator R37V, Q9NWH9", "abundance fitness": "-1.06 ± 0.08"},
      {"substance": "SAFB-like transcription modulator R37W, Q9NWH9", "abundance fitness": "-1.26 ± 0.071"},
      {"substance": "SAFB-like transcription modulator R37Y, Q9NWH9", "abundance fitness": "-0.722 ± 0.16"},
      {"substance": "SAFB-like transcription modulator R51A, Q9NWH9", "abundance fitness": "-0.437 ± 0.077"},
      {"substance": "SAFB-like transcription modulator R51D, Q9NWH9", "abundance fitness": "-0.783 ± 0.4"},
      {"substance": "SAFB-like transcription modulator R51F, Q9NWH9", "abundance fitness": "-1.21 ± 0.38"},
      {"substance": "SAFB-like transcription modulator R51G, Q9NWH9", "abundance fitness": "-0.574 ± 0.078"},
      {"substance": "SAFB-like transcription modulator R51H, Q9NWH9", "abundance fitness": "-0.814 ± 0.27"},
      {"substance": "SAFB-like transcription modulator R51I, Q9NWH9", "abundance fitness": "-0.542 ± 0.22"},
      {"substance": "SAFB-like transcription modulator R51K, Q9NWH9", "abundance fitness": "-0.2 ± 0.065"},
      {"substance": "SAFB-like transcription modulator R51L, Q9NWH9", "abundance fitness": "-0.753 ± 0.068"},
      {"substance": "SAFB-like transcription modulator R51M, Q9NWH9", "abundance fitness": "-0.506 ± 0.051"},
      {"substance": "SAFB-like transcription modulator R51N, Q9NWH9", "abundance fitness": "-0.403 ± 0.037"},
      {"substance": "SAFB-like transcription modulator R51P, Q9NWH9", "abundance fitness": "-0.699 ± 0.13"},
      {"substance": "SAFB-like transcription modulator R51S, Q9NWH9", "abundance fitness": "-0.511 ± 0.063"},
      {"substance": "SAFB-like transcription modulator R51T, Q9NWH9", "abundance fitness": "-0.57 ± 0.13"},
      {"substance": "SAFB-like transcription modulator R51V, Q9NWH9", "abundance fitness": "-0.73 ± 0.19"},
      {"substance": "SAFB-like transcription modulator R51W, Q9NWH9", "abundance fitness": "-1.1 ± 0.085"},
      {"substance": "SAFB-like transcription modulator R51Y, Q9NWH9", "abundance fitness": "-1.01 ± 0.35"},
      {"substance": "SAFB-like transcription modulator S32A, Q9NWH9", "abundance fitness": "-0.147 ± 0.062"},
      {"substance": "SAFB-like transcription modulator S32C, Q9NWH9", "abundance fitness": "-0.309 ± 0.067"},
      {"substance": "SAFB-like transcription modulator S32D, Q9NWH9", "abundance fitness": "0.156 ± 0.073"},
      {"substance": "SAFB-like transcription modulator S32E, Q9NWH9", "abundance fitness": "-0.03 ± 0.05"},
      {"substance": "SAFB-like transcription modulator S32F, Q9NWH9", "abundance fitness": "-0.125 ± 0.036"},
      {"substance": "SAFB-like transcription modulator S32G, Q9NWH9", "abundance fitness": "-0.077 ± 0.051"},
      {"substance": "SAFB-like transcription modulator S32H, Q9NWH9", "abundance fitness": "-0.031 ± 0.055"},
      {"substance": "SAFB-like transcription modulator S32K, Q9NWH9", "abundance fitness": "-0.246 ± 0.085"},
      {"substance": "SAFB-like transcription modulator S32L, Q9NWH9", "abundance fitness": "-0.024 ± 0.04"},
      {"substance": "SAFB-like transcription modulator S32M, Q9NWH9", "abundance fitness": "-0.051 ± 0.044"},
      {"substance": "SAFB-like transcription modulator S32N, Q9NWH9", "abundance fitness": "-0.407 ± 0.11"},
      {"substance": "SAFB-like transcription modulator S32P, Q9NWH9", "abundance fitness": "-0.768 ± 0.058"},
      {"substance": "SAFB-like transcription modulator S32Q, Q9NWH9", "abundance fitness": "-0.325 ± 0.097"},
      {"substance": "SAFB-like transcription modulator S32R, Q9NWH9", "abundance fitness": "-0.176 ± 0.045"},
      {"substance": "SAFB-like transcription modulator S32T, Q9NWH9", "abundance fitness": "-0.048 ± 0.068"},
      {"substance": "SAFB-like transcription modulator S32V, Q9NWH9", "abundance fitness": "-0.023 ± 0.051"},
      {"substance": "SAFB-like transcription modulator S32W, Q9NWH9", "abundance fitness": "-0.108 ± 0.049"},
      {"substance": "SAFB-like transcription modulator S32Y, Q9NWH9", "abundance fitness": "-0.173 ± 0.09"},
      {"substance": "SAFB-like transcription modulator S50A, Q9NWH9", "abundance fitness": "0.015 ± 0.037"},
      {"substance": "SAFB-like transcription modulator S50C, Q9NWH9", "abundance fitness": "-0.342 ± 0.082"},
      {"substance": "SAFB-like transcription modulator S50D, Q9NWH9", "abundance fitness": "-0.109 ± 0.065"},
      {"substance": "SAFB-like transcription modulator S50E, Q9NWH9", "abundance fitness": "0.087 ± 0.075"},
      {"substance": "SAFB-like transcription modulator S50F, Q9NWH9", "abundance fitness": "-0.253 ± 0.052"},
      {"substance": "SAFB-like transcription modulator S50G, Q9NWH9", "abundance fitness": "0.028 ± 0.039"},
      {"substance": "SAFB-like transcription modulator S50H, Q9NWH9", "abundance fitness": "-0.353 ± 0.47"},
      {"substance": "SAFB-like transcription modulator S50I, Q9NWH9", "abundance fitness": "-0.514 ± 0.29"},
      {"substance": "SAFB-like transcription modulator S50K, Q9NWH9", "abundance fitness": "-0.111 ± 0.083"},
      {"substance": "SAFB-like transcription modulator S50L, Q9NWH9", "abundance fitness": "-0.055 ± 0.075"}
    ]}
  ]
}
